Numbering of substitutions follows the chain as printed.
T1: Human MCSP D3 (human, UniProt Q6UVK1 1582-2224)
T1 construct: Soluble analyte in SPR; The selection antigen was hu-MCSP(D3 domain)-avi-his; also called hu-MCSP(D3 domain)-avi-his
T1 sequence: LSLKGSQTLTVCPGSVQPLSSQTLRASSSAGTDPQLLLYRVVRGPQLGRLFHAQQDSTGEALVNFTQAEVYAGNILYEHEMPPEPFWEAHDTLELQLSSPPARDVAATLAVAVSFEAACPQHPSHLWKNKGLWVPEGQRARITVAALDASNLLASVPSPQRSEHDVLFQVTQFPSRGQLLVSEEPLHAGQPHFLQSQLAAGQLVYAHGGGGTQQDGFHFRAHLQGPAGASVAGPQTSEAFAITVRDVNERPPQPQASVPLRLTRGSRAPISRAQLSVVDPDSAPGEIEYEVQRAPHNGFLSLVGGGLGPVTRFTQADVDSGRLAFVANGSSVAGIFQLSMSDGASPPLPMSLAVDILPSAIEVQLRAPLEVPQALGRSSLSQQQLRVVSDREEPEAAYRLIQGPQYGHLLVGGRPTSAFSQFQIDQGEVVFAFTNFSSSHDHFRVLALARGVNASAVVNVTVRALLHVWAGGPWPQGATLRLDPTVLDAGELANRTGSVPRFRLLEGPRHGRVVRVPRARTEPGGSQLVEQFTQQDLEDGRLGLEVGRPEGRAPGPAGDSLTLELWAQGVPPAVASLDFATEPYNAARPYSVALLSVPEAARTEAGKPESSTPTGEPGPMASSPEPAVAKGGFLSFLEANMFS

T2: Cynomolgus MCSP D3 (cynomolgus, UniProt Q6UVK1 1582-2224 (human entry), limits assumed)
T2 construct: Soluble analyte in SPR
T2 chain: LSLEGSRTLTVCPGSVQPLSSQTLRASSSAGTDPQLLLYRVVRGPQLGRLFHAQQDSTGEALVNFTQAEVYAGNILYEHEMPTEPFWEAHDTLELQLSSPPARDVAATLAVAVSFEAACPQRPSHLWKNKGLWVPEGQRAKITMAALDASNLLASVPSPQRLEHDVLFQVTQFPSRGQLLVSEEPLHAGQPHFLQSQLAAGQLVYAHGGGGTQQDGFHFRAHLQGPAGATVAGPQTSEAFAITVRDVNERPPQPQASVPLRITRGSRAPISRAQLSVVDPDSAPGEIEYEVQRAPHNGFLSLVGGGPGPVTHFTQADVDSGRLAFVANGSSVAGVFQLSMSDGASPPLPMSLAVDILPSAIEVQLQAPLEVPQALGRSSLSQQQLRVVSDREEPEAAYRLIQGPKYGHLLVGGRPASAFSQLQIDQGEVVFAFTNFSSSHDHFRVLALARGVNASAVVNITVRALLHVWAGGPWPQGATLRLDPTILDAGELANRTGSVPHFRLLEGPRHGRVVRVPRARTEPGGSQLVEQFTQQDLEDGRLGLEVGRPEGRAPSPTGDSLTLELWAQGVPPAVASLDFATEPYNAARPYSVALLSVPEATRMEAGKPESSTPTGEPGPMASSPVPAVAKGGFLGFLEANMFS

B1: M4-3 ML2 (parental) (antibody, human IgG1, kappa, V domains shown)
VH: QVQLQESGPGLVKPSQTLSLTCTVSGGSITSGYYWNWIRQHPGKGLEWIGYITYDGSNNYNPSLKSRVTISRDTSKNQFSLKLSSVTAADTAVYYCADFDYWGQGTLVTVSS
VL: DIQMTQSPSSLSASVGDRVTITCRASQGIRNYLNWYQQKPGKAPKLLIYYTSSLHSGVPSRFSGSGSGTDFTLTISSLQPEDFATYYCQQYSKLPWTFGQGTKVEIKR
notes: Non-matured parental humanized IgG; also called humanized antibody M4-3 ML2
B2: M4-3 (C1) ML2 (antibody, human IgG1, V domains shown)
VH: B1 VH with Y54F
VL: DIQMTQSPSSLSASVGDRVTITCRASQGIRNYLNWYQQKPGKAPKLLIYYTSSLHSGVPSRFSGSGSGTDFTLTISSLQPEDFATYYCQQYSKLPWTFGQGTKVEIK
B3: M4-3 ML2 (C5/G3) (antibody, human IgG1, V domains shown)
VH: B1 VH
VL: B2 VL with Q27R, N31E, S52G, K93A
B4: M4-3 (D6) ML2 (antibody, human IgG1, V domains shown)
VH: B1 VH with Y54F, S57K
VL: B2 VL
B5: M4-3 (A7) ML2 (antibody, human IgG1, V domains shown)
VH: B1 VH with S31D, Y54F, S57R
VL: B2 VL
B6: M4-3 ML2 (C5) (antibody, human IgG1, V domains shown)
VH: B1 VH
VL: B2 VL with Q27R, N31E, S52G, K93E
B7: M4-3 ML2 (E10/G3) (antibody, human IgG1, V domains shown)
VH: B1 VH
VL: B2 VL with Q27Y, N31G, Y87H, K93A
B8: M4-3 (B8) ML2 (antibody, human IgG1, V domains shown)
VH: B1 VH with Y54F, S57R
VL: B2 VL
B9: M4-3 (B7) ML2 (antibody, human IgG1, V domains shown)
VH: B1 VH with Y54F, S57I
VL: B2 VL
B10: M4-3 (C1) ML2 (C5) (antibody, human IgG1, V domains shown)
VH: B1 VH with Y54F
VL: B2 VL with Q27R, N31E, S52G, K93E
B11: M4-3 (A7) ML2 (G3) (antibody, human IgG1, V domains shown)
VH: B1 VH with S31D, Y54F, S57R
VL: B2 VL with F71Y, K93A
B12: M4-3 ML2 (E10) (antibody, human IgG1, V domains shown)
VH: B1 VH
VL: B2 VL with Q27Y, N31G, Y87H
B13: M4-3 (A7) ML2 (C5) (antibody, human IgG1, V domains shown)
VH: B1 VH with S31D, Y54F, S57R
VL: B2 VL with Q27R, N31E, S52G, K93E
B14: M4-3 (C1) ML2 (E10) (antibody, human IgG1, V domains shown)
VH: B1 VH with Y54F
VL: B2 VL with Q27Y, N31G, Y87H
B15: M4-3 (C1) ML2 (G3) (antibody, human IgG1, kappa, V domains shown)
VH: B1 VH with Y54F
VL: B1 VL with F71Y, K93A
B16: M4-3 (A7) ML2 (E10) (antibody, human IgG1, V domains shown)
VH: B1 VH with S31D, Y54F, S57R
VL: B2 VL with Q27Y, N31G, Y87H

What follows are binders tested against T1, Human MCSP D3 (assay: SPR Biacore T200, 25 C, IgG captured on anti-human Fab, MCSP D3 as analyte, 1:1 Langmuir fit).
Experimental: (§1) IgGs were captured on a CM5 sensorchip surface with immobilized anti human Fab. Capture IgG was coupled to the sensorchip surface by direct immobilization of around 10,000 resonance units (RU) at pH 5.0 using the standard amine coupling kit (Biacore, Freiburg/Germany). IgGs are captured for 60 s at 30 nM with 10 μl/min. Human and cynomolgus MCSP D3 were passed at a concentration of 0.49-1000 nM with a flowrate of 30 μl/min through the flow cells over 180 s. The dissociation is monitored for 210 s. Bulk refractive index differences were corrected for by subtracting the response obtained on reference flow cell. Here, the antigens were flown over a surface with immobilized anti-human Fab antibody but on which HBS-EP has been injected rather than anti MCSP IgGs.

Kd	Binder
24.2 nM	B1
7.2 nM	B2
4.2 nM	B3
15.1 nM	B4
7.1 nM	B5
0.8 nM	B6
5.5 nM	B7
19.2 nM	B8
12.6 nM	B9
0.003 nM	B10
0.009 nM	B11
21.4 nM	B12
0.002 nM	B13
3.9 nM	B14
1.6 nM	B15
3.1 nM	B16

Biological target: T2, Cynomolgus MCSP D3
Experiment: as above
Experimental: as §1

Kd	Binder
82.5 nM	B1
9.8 nM	B2
12.8 nM	B3
24.6 nM	B4
16.3 nM	B5
5.7 nM	B6
12.2 nM	B7
28.8 nM	B8
9.9 nM	B9
0.12 nM	B10
1.5 nM	B11
62.8 nM	B12
1.1 nM	B13
4.5 nM	B14
1.3 nM	B15
8.5 nM	B16
